How the values were obtained:
[1] = target: toxin-binding region from T. ni cadherin (TnCAD-FL) (Trichoplusia ni); assay: BLI
[2] = target: SH2 domain of ABL1 kinase fused to the 434 phage cI repressor (UniProt P00519); assay: two-hybrid

Substance | Kd [1] | fold transcriptional activation [2]
wild-type Cry1Ac, trypsin-activated (from UniProt P05068 1-1178) (natural protein) | > 1000 µM | –
wild-type HA4 monobody fused to RpoZ (designed binder) | – | > 200 fold
